# Source: the supplement of paper PMC9170038
# How the values were obtained:
# MS2 coat protein [1] = experiment: apparent KD of MS2 coat protein, switch OFF state (with FMN for OFF switches, without FMN for ON switches); designed switch direction (-1 OFF switch, 1 ON switch): 1; higher = weaker reporter binding; conditions: FMN input: 0 or 200 uM; Eterna round: R93 (includes R88 designs)
# Procedure, shortened: (§1)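 Illumina sequencing clusters were used for on-chip transcription of designed RNA switches. Titration with SNAP-549-labelled MS2 coat protein followed, in twofold steps from 0.7 or 1.5 nM to 3 µM in 100 mM Tris-HCl pH 7.5, 80 mM KCl, 4 mM MgCl2, without or with constant ligand. Apparent KD is each design's median of fits to normalised cluster binding curves.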
# MS2 coat protein [2] = experiment: apparent KD of MS2 coat protein, switch ON state; designed switch direction (-1 OFF switch, 1 ON switch): 1; higher = weaker reporter binding; conditions: FMN input: 0 or 200 uM; Eterna round: R93 (includes R88 designs)
# Procedure, shortened: as §1
Sequence,apparent KD of MS2 coat protein (MS2 coat protein [1]) [nM],apparent KD of MS2 coat protein (MS2 coat protein [2]) [nM]
ACAAACAAAAAAGAGGAUAUCCAAAACAAAACAUGAGGAUCACCCAUGUAAAAGAAAAGAAAAUGGGAGAAGGCUUACAACAAAC [SS2 M 22],28.2,19.4
ACAAAUAAAAGAGAGGAUAUCCAAAAGAAAACAUGAGGAUCACCCAUGUGAAAGAAAAUAAAAUGGGAGAAGGCUCAGAAUAAUA [Topaz 30],83.2,16.4
ACAAGACAUGAGGAUCACCCAUGUAAAGAAAACGCAGGAUAUGCAAAAAAAUUCAUGGGUGCAGAAGGGCGAAAAA [Default title],34.2,153
ACGAGGAAGAGAGAGGAUAUCCAAAGGAAAACAUGAGGAUCACCCAUGUAAAAGGUAGGAAAUUGGGAGAAGGCUCAAGAGAGAG [salish99-ss2-069],34.6,32.4
ACUACACAUGAGGAUCACCCAUGUCAGGCCGGACUAGGAUAUUAUAAACCAGAGUAAAAAUAAGAAGGAGUAGGAA [JR_SS001_Sub310],61.3,39.2
ACUUCACAUGAGGAUCACCCAUGUCAGGCCGGACUAGGAUAUUAUCAAGCAGCGUAACCAUAAGAAGGAGUAGGAA [JR_SS001_Sub313],82.5,57.7
AGAAAACAUGAGGAUCACCCAUGUAGAAAUAUGGGAGGAUAUACAUAGACGAAAGUCAUAGUAGAAGGCCUAAAGA [Mat - Same State 1 - Meechl mod - D128],49.4,15
AGAAAACAUGAGGAUCACCCAUGUAGAAAUAUGGGAGGAUAUACGAAGACGAAAGUCGAAGUAGAAGGCCUAAAGA [Mat - Same State 1 - Meechl mod - D126],50.8,23.2
AGAAAGAAAAGAGAGGAUAUCUAAAAGAAAACAUGAGGAUCACCCAUGUAAAAGAAAAGAAAAUGGGAGAAGGCUCAUGAGAAAG [JL Skelter Mod 7 In the Red],59.7,101
AGAAAUAAAAGAGAGGAUAUCCAAAAGAAAACAUGAGGAUCACCCAUGUAAAAGAAAAUAAAAUGGGAGAAGGCUCAUAUUAAAG [JL Skelter 2 mod 3],146,44.9
AGAAAUAAAAGAGAGGAUAUCCAAAAGAAAACAUGAGGAUCACCCAUGUACACGAAAGUGAAAUGGGAGAAGGCUCAAAAUAAAG [80% More Helter Skelter 2 + Hairpin],536,121
"AGAAAUAAAUGAGAGGAUAUCCAAAAGAAAACAUGAGGAUCACCCAUGUAAAAGAAAAUAAAAUGGGAGAAGGCUCGAAAUAAAG [80%, More Helter Skelter 2]",68.5,22.4
"AGAAAUAAAUGAGAGGAUAUCCAAAAGAAAACAUGAGGAUCACCCAUGUAAAAGAAAAUAAAGUGGGAGAAGGCUCGAAAUAAAG [80%, More Helter Skelter 2]",43.5,23.3
AGAAUAAAAAGAGAGGAUAUCCAUAAGAAAACAUGAGGAUCACCCAUGUGAAAGAUAAUAAAAUGGGAGAAGGCUCAAAAUAAGA [Topaz 45],20.2,21
AGAAUAAAAAGAGAGGAUAUCCAUAAGAAAACAUGAGGAUCACCCAUGUGAAAGAUAAUAAGAUGGGAGAAGGCUCAAAAUAAGA [Topaz 46],49.5,20.3
AGCACGCGAUUGGAGGAUAUGUUGUUUGCAACAUGAGGAUCACCCAUGUCUGAGGCUGAAAAGCAGCAGAAGGCCGAUACAACCA [SS2-1.1],113,30.6
"AGGAAACAUGAGGAUCACCCAUGUAAAAAAUAGGGAGGAUAUACUAGAAGAAACAAAAUAGUAGAAGGCUCAAAAA [75%, Ex sub1, 25]",30,12.9
"AGGAAACAUGAGGAUCACCCAUGUAAAAAAUAGGGAGGAUAUGGAAACACGAAAGUGAAACCAGAAGGCUCAAAAA [77%, Mat - Mod of Eli, 23]",18.2,13.8
AGGAAACAUGAGGAUCACCCAUGUAAAAAUAUGGGAGGAUAUACAAACAAGAAAGUCAAAGUAGAAGGCCUAAAAG [Garnet 6],152,63.7
AGGAAACAUGAGGAUCACCCAUGUAAAAAUAUGGGAGGAUAUACAAACAAGAAAGUCAGAGUAGAAGGCCUAAAAG [Garnet 7],145,73.7
AGGAAACAUGAGGAUCACCCAUGUAAAAAUAUGGGAGGAUAUACGAAGACGAAAGUAAAAGUAGAAGGCCUAAAAG [Garnet 15],108,31.8
"AGGAAACAUGAGGAUCACCCAUGUAAAAAUAUGGGAGGAUAUUGGAAUAAAAUAAAGAACCGAGAAGGCCUAAAAA [59%, Flamingo, 6]",219,32.3

Sequence,apparent KD of MS2 coat protein (MS2 coat protein [1]) [nM],apparent KD of MS2 coat protein (MS2 coat protein [2]) [nM]
AGGAAACAUGAGGAUCACCCAUGUAAAGAUGGGCGAGGAUAUCGAAAGAAAAGAAAGAAACGAGAAGGCGCAAAAG [Flamingo],240,43.7
"AGGAAACAUGAGGAUCACCCAUGUAAGAUAAACUUAGGAUAUGCGAAAAGAAACAAAGAAGCAGAAGGAGGGAGAA [75%, Ex5 sub 1, 2]",33,16.5
"AGGAAACAUGAGGAUCACCCAUGUAUAAAAAAUACAGGAUAUGGAAACACGAAAGUGAAACCAGAAGGGUAAAAAA [77%, Mat - Mod of Eli, 32]",39.9,15.9
AGGAGACAUGAGGAUCACCCAUGUGAGAAGAGGCGAGGAUAUCGAAAGAAAGAAGAGAAACGAGAAGGCGCGAGCU [salish99-SS1-024],29.6,24.4
AGGAGACAUGAGGAUCACCCAUGUGAGAAGAGGCGAGGAUAUCGAAAGAAAGAAGAGAAACGAGAAGGCGCGAGGU [salish99-SS1-023],36.7,23.6
AGGAGACAUGAGGAUCACCCAUGUGCACGUGGAGGAGGAUAUGCUAGUAGAAGAUAGAAAGCAGAAGGCCUAAGAA [mod of top voted: #2],37.2,44.3
AGGAGACAUGAGGAUCACCCAUGUGCACGUGGAGGAGGAUAUGCUAGUAGAAGAUAGAAUGCAGAAGGCCUAAGAA [JR_SameState1_Sub3],35.3,42.8
AUAAAACAUGAGGAUCACCCAUGUAGACAUAUGGGAGGAUAUACUAGAUCGAAAGAUCUAGUAGAAGGUCUUUAAA [JL Mod of Eli 9],257,297
AUAAAACAUGAGGAUCACCCAUGUAGCUAAAGCACAGGAUAUAGGAGUCCGAGCAGACAUCUAGAAGGGUGGAAAA [Veeslelein],88.6,57.5
"AUAAAAGAAGCGAAGGAUAUCCAACUCAAAACAUGAGGAUCACCCAUGUAAAGAAAUAAAAAAUGGGAGAAGGUCGCAAAGAAUA [73%, More Fisker Same State 2, D3, 14]",40.1,582
AUAAGACAUGAGGAUCACCCAUGUAUAAGAGCAUGAGGAUAUAUGAAAAGUAAUAGGAGAAUAGAAGGCAUAGUUG [JR_SS001_Sub1220],92.4,80.7
AUAAUAUUAAGCAAGGAUAUACUAAAGUAAACAUGAGGAUCACCCAUGUGAAAAAAAAAACUCAUGUAGAAGGUGCAUAAAUAAA [moonwalk 11],50,23.9
AUACUACAUGAGGAUCACCCAUGUUGAAAUAUGGAAGGAUAUACGUAGUAAAAUAACUACGUAGAAGGUCCAGAAA [SS1 MT 22],19.6,18.7
AUAGAACAUGAGGAUCACCCAUGUAAAAAAGCAUGAGGAUAUAUAAGUAAAUAAAAUAAGAUAGAAGGCAUGAUAA [JR_SS001_Sub1701],91.4,52
AUAGACAUAGUUCAGGAUAUGGUAAUAGUCACAUGAGGAUCACCCAUGUGCAUUUAUAUGCGCGAUCAGAAGGGAGGUAGAUAUA [Mat - Same state - Malcolm Mod - D117],16.3,17.7
AUAUAUAUAAGGUAGGAUAUCCUAAAGUAAACAUGAGGAUCACCCAUGUAAAGAAAGAAACUCAUGGAGAAGGACCAUAUAUAUA,20.2,15.5
AUAUGAUCAUGUGAGGAUAUCCAUAAUAAAACAUGAGGAUCACCCAUGUAUAGAUACUAAUAAUGGGAGAAGGCACAUGAUCAAU [SS 2 M43],24,19.9
AUGGUCAAGUGUGAGGAUAUCCAGGCUCCCACAUGAGGAUCACCCAUGUUUUAAAGAGCGUAAAGGGAGAAGGUACGAACGCCAC [Isorvere],21.9,15.4
AUUCCAAAUAGUCAGGAUAUCAGGAGUAAGACAUGAGGAUCACCCAUGUACUUAGUAAAAGUAACUGAGAAGGGACAGGGUGUAA [JR_SS002_Sub406],24.2,30
AUUUUACAUGAGGAUCACCCAUGUUUUGGUGGAUCAGGAUAUAGAUUGAAUGAGUUUUAGCUAGAAGGGAUAUAUA [JR_SS001_Sub506],110,111
CACCCGUGUAUGAAGGAUAUGUAGACCCUGACAUGAGGAUCACCCAUGUAACUGUGGGUCCCAUCGCAGAAGGUCGAGACACGGG [Ribitite],180,22.4
CAGCGCUGUCGAGAGGAUAUGCGGUGAUGGACAUGAGGAUCACCCAUGUAAGCGAUAGCAUUACGGCAGAAGGCUCUGCAGCUGC [Riaranzaes],69.6,18.7
